{
  "source": "paper PMC4227133",
  "molecular_target": "Gal4 Cyclin T1s with a mutated Y175",
  "data": [
    {"binder": "Hexim1, endogenous in HEK293 cells, O94992 1-359 (natural protein) MAEPFLSEYQHQPQTSNCTGAAAVQEELNPERPPGAEERVPEEDSRWQSRAFPQLGGRPGPEGEGSLESQPPPLQTQACPESSCLREGEKGQNGDDSSAGGDFPPPAEVEPTPEAELLAQPCHDSEASKLGAPAAGGEEEWGQQQRQLGKKKHRRRPSKKKRHWKPYYKLTWEEKKKFDEKQSLRASRIRAEMFAKGQPVAPYNTTQFLMDDHDQEEPDLKTGLYSKRAAAKSDDTSDDDFMEEGGEEDGGSDGMGGDGSEFLQRDFSETYERYHTESLQNMSKQELIKEYLELEKCLSRMEDENNRLRLESKRLGGDDARVRELELELDRLRAENLQLLTENELHRQQERAPLSKFGD", "values": [
      {"measurement": "other", "value": 2, "unit": "fold"}
    ]}
  ]
}
